# B1: phiNM3 CWT domain: cell wall targeting domain, amino acid residues 158-251 of S. aureus phage phiNM3 lysin, approximately 10-kDa; tested FITC-labeled (protein)
# chain: GKSASKITVGSKAPYNLKWSKGAYFNAKIDGLGATSATRYGDNRTNYRFDVGQAVYAPGTLIYVFEIIDGWCRIYWNNHNEWIWHERLIVKEVF
# modifications: FITC label; Staphylococcus aureus phage phiNM3
# notes: cell wall targeting domain, amino acid residues 158-251 of S. aureus phage phiNM3 lysin, approximately 10-kDa; tested FITC-labeled
# Legend:
# Bacillus cereus = test: Binding of FITC-labeled phiNM3 CWT to bacterial cells, fluorescence microscopy; details: FITC-labeled protein 50 μg, 10 minutes
# Excerpt: (§1) Most preferably, the binding molecule is a soluble binding domain of a bacterial lysin comprising a polypeptide including an amino acid sequence providing specific binding to S. aureus, such as SEQ ID NO:1 (phiNM3 CWT domain). For example, the lysin preferably includes the polypeptide sequence of S. aureus phage phiNM3 lysin (SEQ ID NO:1) (protein accession number YP_908849). The phiNM3 lysin CWT domain (SEQ ID NO:1) corresponding to amino acid residues 158-251 was cloned and expressed. […] FIG. 2A is […] showing the protein of SEQ ID NO:1 in a second column next to a set of marker proteins in a first column. […] Group A streptococci, E. coli and Bacillus cereus were used as controls.
# (§2) Fluorescent labeling and binding analyses were performed on phiNM3 CWT. S. aureus strain 8325-4 genomic DNA was used to amplify the putative CWT of phiNM3 lysin using primers NM3-FWD […]-3′ (SEQ ID NO:10) and NM3-REV 5′-[…]-3′(SEQ ID NO:11). The resulting amplicon was cloned into the arabinose-inducible expression vector pBAD24. Positive clones containing the insert were confirmed by sequencing. The approximately 10-kDa phiNM3 CWT protein was expressed and the protein was purified in one step by cation-exchange chromatography. The purified protein (1 mg/ml) was incubated with 10 μl of FITC (1 mg/ml) for 1 hour. Excess FITC was removed on a desalting column. The labeled-protein (50 μg) was incubated with bacterial cells for 10 minutes, washed 3× with phosphate-buffered saline (pH 7.4) and observed under fluorescence microscope.
# S. epidermidis = test: as above; details: FITC-labeled protein 50 μg, 10 minutes
# Excerpt: as §1, §2
# Group A streptococci = test: as above; details: FITC-labeled protein 50 μg, 10 minutes
# Excerpt: as §1, §2
# E. coli = test: as above; details: FITC-labeled protein 50 μg, 10 minutes
# Excerpt: as §1, §2
# [1] = Solubility of expressed lysins and chimeras; details: qualitative
# Method: In another embodiment, the lysin is a chimeric protein that comprises an endopeptidase domain of the S. aureus Twort lysin upstream of the phiNM3 CWT domain (SEQ ID NO:1). The chimeric polypeptide is preferably sufficiently soluble in phosphate buffered saline (PBS). Preferred levels of solubility in PBS for the chimeric lysins is at least about 1 mg/ml and more preferably at least about 3 mg/mL. in PBS. […] One example of such a lysin is provided in SEQ ID NO:2 (AD127), shown in FIG. 5A and consisting of the Twort lysin endopeptidase domain attached to the phiNM3 CWT domain (SEQ ID NO:1). The isolated polypeptide of SEQ ID NO:2 (AD 127) was constructed by engineering S. epidermidis autolysin amidase and Twort lysin endopeptidase domains upstream of phiNM3 CWT domain, respectively.
# Traditionally, Bacillus-specific lysins are expressed at high levels and are soluble in E. coli. Therefore, our first attempt was to engineer a 16-amino acid peptide (4) that is conserved in several S. aureus-specific lysins (Lu J Z, Fujiwara T, Komatsuzawa H, Sugai M, Sakon J. 2006. Cell wall-targeting domain of glycylglycine endopeptidase distinguishes among peptidoglycan cross-bridges. (Lue et al. (2006) J. Biol. Chem. 281(1):549-58) The catalytic domain of the Bacillus-specific lysin PlyB was used to generate chimera AD 103 (FIG. 4) (SEQ ID NO: 13). The chimeras were tested for expression, solubility and activity. Then the entire C-terminal CWT domain of PlyB (6) was replaced by the putative C-terminal domain of S. aureus phage Twort lysin (8) to obtain AD 105 (SEQ ID NO: 14). […] Since the lysostaphin catalytic domain […] (10) in AD 112 was of bacterial origin, we attempted to engineer a phage-derived catalytic domain upstream of the lysostaphin CWT. For this, the endopeptidase domain in Twort lysin (14) was used to construct chimera AD 119 (SEQ ID NO:3).
# S. aureus = test: Binding of FITC-labeled phiNM3 CWT to bacterial cells, fluorescence microscopy; set-up: species or system Staphylococcus aureus; details: FITC-labeled protein 50 μg, 10 minutes; single or mixed populations
# Excerpt: as §1
# as §2, with “The approximately 10-kDa phiNM3 CWT protein was expressed and the protein was purified in one step by cation-exchange chromatography. The purified protein (1 mg/ml) was incubated with 10 μl of FITC (1 mg/ml) for 1 hour. Excess FITC was removed on a desalting column.” left out
molecule,measurement,setting,value
B1,binding to Bacillus,Bacillus cereus,not observed
same,binding to S. epidermidis cells,S. epidermidis,bound specifically
same,binding to streptococci,Group A streptococci,not observed
same,binding to E. coli,E. coli,not observed
same,solubility of the expressed protein,[1],highly soluble
same,binding to S. aureus cells,S. aureus,bound specifically

# Reference: patent US11827911B2, “Chimeric bacteriophage lysin with activity against Staphylococci bacteria” (priority 2008, dated 2023)
